Columns and labels:
[1] = biological target: E. coli single-stranded binding protein (EcSSB) (E. coli) (UniProt P0AGE0); assay: cell-based or functional assay; conditions: scale: fold improved over the RecT protein alone
[2] = biological target: PaSSB (Pseudomonas aeruginosa single-stranded binding protein) (Pseudomonas aeruginosa) (UniProt P40947); assay: cell-based or functional assay
[3] = biological target: LlSSB C8:EcSSB (L. lactis SSB with its last 8 C-terminal residues replaced by those of EcSSB) (L. lactis) (UniProt Q9CDM9); assay: cell-based or functional assay
[4] = biological target: LlSSB C7:EcSSB (L. lactis SSB with its last 7 C-terminal residues replaced by those of EcSSB) (L. lactis) (UniProt Q9CDM9); assay: cell-based or functional assay
[5] = biological target: L. lactis single-stranded binding protein (LlSSB) (L. lactis) (UniProt Q9CDM9); assay: cell-based or functional assay
[6] = biological target: EcSSBΔ9 (EcSSB with a 9-amino-acid C-terminal deletion) (E. coli) (UniProt P0AGE0); assay: cell-based or functional assay
[7] = tested on: Agrobacterium tumefaciens; assay: Oligo-recombineering efficiency of SSAP/SSB library members; assay type: cell-based; conditions: A. tumefaciens, after two rounds of selection
Experimental: A library of the most broadly-acting three (3) SSAPs and twenty five (25) SSBs was cloned into an Agrobacterium tumefaciens (A. tumefaciens) vector (75-member library). The library was selected for efficient genome editing, and oligo-recombineering. Efficiency was measured from the two most frequent members of the library after two rounds of selection. Editing efficiency of close to 1% was measured in SSAP SEQ ID NO: 143/SSB SEQ ID NO: 310. […] A. tumefaciens is quite distantly related to E. coli, L. lactis, and M. smegmatis (FIG. 7).

E. coli [8] = assay: Fifteen cycles of MAGE with pool of 15 oligos, editing efficiency by NGS; assay type: cell-based, Escherichia coli; conditions: 15 separate mutations, one week
Experimental: E. coli populations expressing either an efficient SSAP (SEQ ID NO: 157), an efficient SSAP/SSB pair (SEQ ID NO: 157/SEQ ID NO: 384), or the widely-used Redβ were taken through fifteen cycles of MAGE and transformed each cycle with a 10 μM pool comprising 15 unique oligos. Editing efficiency at each targeted locus was measured by NGS and averaged (FIG. 3).

E. coli [9] = assay: Editing efficiency by NGS, non-coding mismatch at a non-essential gene; assay type: cell-based, Escherichia coli; conditions: versus Redβ expressed off wild-type codons
Experimental: Top-performing SSAPs and SSAP/SSB pairs from experiments in E. coli, L. lactis, and M. smegmatis are shown in FIG. 2A, FIG. 2B and FIG. 2C, respectively. Bars in red are the proteins that had previously been reported in the literature. The proteins listed were found after ten rounds of selection for protein variants that enabled the introduction of an oligonucleotide that conferred a genomic edit that provided antibiotic resistance. Unbiased editing efficiency was tested in each case by introducing a non-coding base change at a non-essential gene and measuring the frequency of incorporation via next generation sequencing.
Their recombineering efficiency was tested against Redβ expressed off of its wild-type codons on the same plasmid system used for the SEER selections. […]
The efficiency of each SSAP or SSAP/SSB pair was measured by expressing them off of their host-specific plasmid in the naïve parent strain and running a recombineering cycle with an oligo that confers a 4-nucleotide non-coding mismatch in a non-essential gene. The allele was then amplified by PCR and editing efficiency was measured by next-generation sequencing.
To measure single locus editing, a recombineering cycle was run with an oligo that confers a single base pair non-coding mismatch in a non-essential gene. The allele was then amplified by PCR and editing efficiency was measured by NGS as described above. […]

Redβ single-stranded annealing protein (SSAP) from Enterobacteria phage λ (from UniProt P03698 1-261)
editing efficiency in L. lactis, pair against the RecT protein alone [1]: 483
editing efficiency in C. crescentus (fold over Redβ alone) [2]: 15
editing efficiency in C. crescentus after expression optimization and evasion of mismatch repair (fold higher than Redβ alone) [2]: 112
editing efficiency in C. crescentus after expression optimization and evasion of mismatch repair (fold over the background level) [2]: 873
editing rate in L. lactis (fold of Redβ with EcSSB) [3]: 2.6
editing rate in L. lactis (fold of Redβ with EcSSB) [4]: 5.9
genome editing efficiency in L. lactis (fold less than Redβ with EcSSB) [5]: 38.5
genome editing efficiency in L. lactis (fold lower than Redβ with EcSSB) [6]: 44

B1: SSAP SEQ ID NO: 143/SSB SEQ ID NO: 310: co-expressed SSAP/SSB pair (protein, listed as Helicobacter pullorum)
chain 1: MAENEKQALLQEENKSENVVSTVKRTALATNPFSDTDQFNNIFKMAQLISQSDMIPATYKGKPMNCVIALEQANRMGVSPLMVMQNLYVVKGVPSWSGQGCMMIIQGCGKFRDVDYVYSGEKGTDSRSCKVVATRISDGKRIEGTEITMQMVKSEGWISNTKWKNMPEQMLGYRAATFFARMYCPNELNGFATEGEAEDMNHKPQRIEAINVLGDTAHE
chain 2: MFNKVILVGNLTRDVELRYLPSGAALARLNLATNRRYKKQDGTQAEEVCFIDVNLFGRTAEVANQYLKKGSQVLIEGRLVLESWTDNTGAKRTKHSITAESMQMLGQRQSTQEENHDYGAGDYNNYQEYEKPAYTASAAPKAQPVQKEPELPVIDINDDEIPF
modifications: Clostridium sp FS41
notes: co-expressed SSAP/SSB pair
Editing efficiency [7]: ~1%

B2: SEQ ID NO: 157/SEQ ID NO: 384: efficient SSAP/SSB pair co-expressed in E. coli (protein, listed as Clostridium sordellii)
chain 1: MNQIVKFTDDSGLAVQVTPDDVRRYICENATEKEVGLFLQLCQTQRLNPFVKDAYLVKYGGAPASMITSYQVFNRRACRDANYDGIKSGVVVLRDGDVVHKRGAACYKKAGEELIGGWAEVRFKDGRETAYAEVALDDYSTGKSNWAKMPGVMIEKCAKAAAWRLAFPDTFQGMYAAEEMDQAQQPEQVRAQAEQPVDLQPIRELFKPYCEHFGITPAEGMTAVCGAVGAEGMHSMTEQQARRARAWMEEEMAAPAVEAEYEVVDEGEVF
chain 2: MNHVVLVGRLTKDPELRYIPGTGTAVATFTIAIDRDYAKKDGSRETDFIPVEVMGKSAEFCANYISKGRLVALQGSIRVDNYQNQSGERRTFTKVSARNIQALDSNKNRSDSPYPSQNQSFEPSFEPSFEPTGLDPQGFQAIDDDDIPF
modifications: Collinsella stercoris DSM 13279
notes: efficient SSAP/SSB pair co-expressed in E. coli
Editing efficiency, averaged over targeted loci (E. coli [8]): ~100%

B3: codon-optimized version of Redβ: Redβ expressed from the codon-optimized gene included in Broad SSAP Library (protein, UniProt P03698 1-261, looked up)
Recombination protein bet: MSTALATLAGKLAERVGMDSVDPQELITTLRQTAFKGDASDAQFIALLIVANQYGLNPWTKEIYAFPDKQNGIVPVVGVDGWSRIINENQQFDGMDFEQDNESCTCRIYRKDRNHPICVTEWMDECRREPFKTREGREITGPWQSHPKRMLRHKAMIQCARLAFGFAGIYDKDEAERIVENTAYTAERQPERDITPVNDETMQEINTLLIALDKTWDDDLLPLCSQIFRRDIRASSELTQAEAVKALGFLKQKAAEQKVAA
modifications: expressed from codon-optimized gene
notes: Redβ expressed from the codon-optimized gene included in Broad SSAP Library
Effect of codon usage on editing efficiency (E. coli [9]): significantly decreased efficiency

Reference: patent US20220228157A1, “GENE EDITING IN DIVERSE BACTERIA” (priority 2019, published 2022)
